This sample holds only a part of the variants without activity.

One data set has as its system biotinyl-Trp-oxazolone. Description: self-aminoacylation, catalytic enhancement (BWO) (fold over background); higher = more active; k-Seq, kA / k0A0; sequences stand for … in GGGAAUGGAUCCACAUCUACGAAUUC…UUCACUGCAGACUUGACGAAGCUG
An outline of the steps:
(§1)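 Mutagenized RNA pools with a 21-nt variable region (0.43 μM) were reacted with each biotinyl-aminoacyl-oxazolone at 2–1250 μM for 90 minutes at room temperature, in 50 μL HEPES/NaCl/KCl/MgCl2/CaCl2 buffer containing 5% acetonitrile at pH 6.9–7.0. RNA captured on streptavidin was quantified by triplicate qPCR and by Illumina sequencing. The fraction reacted for each sequence was fit to a pseudo-first-order model with bootstrapping, and catalytic enhancement is the median kA divided by the uncatalyzed rate, taken as the low-activity peak of a bimodal Gaussian fit.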

In a further data set the test system is biotinyl-Val-oxazolone. Nature of the data set: self-aminoacylation, catalytic enhancement (BVO) (fold over background); higher = more active; k-Seq, kA / k0A0; sequences stand for … in GGGAAUGGAUCCACAUCUACGAAUUC…UUCACUGCAGACUUGACGAAGCUG
An outline of the steps:
as §1

A further data set concerns biotinyl-Ile-oxazolone. Description: self-aminoacylation, catalytic enhancement (BIO) (fold over background); higher = more active; k-Seq, kA / k0A0; sequences stand for … in GGGAAUGGAUCCACAUCUACGAAUUC…UUCACUGCAGACUUGACGAAGCUG
An outline of the steps:
as §1

The subject of another data set is biotinyl-Leu-oxazolone. Nature of the data set: self-aminoacylation, catalytic enhancement (BLO) (fold over background); higher = more active; k-Seq, kA / k0A0; sequences stand for … in GGGAAUGGAUCCACAUCUACGAAUUC…UUCACUGCAGACUUGACGAAGCUG
An outline of the steps: as §1

The test system of the next data set is biotinyl-Met-oxazolone. Nature of the data set: self-aminoacylation, catalytic enhancement (BMO) (fold over background); higher = more active; k-Seq, kA / k0A0; sequences stand for … in GGGAAUGGAUCCACAUCUACGAAUUC…UUCACUGCAGACUUGACGAAGCUG
An outline of the steps:
as §1

The next data set deals with biotinyl-Phe-oxazolone. Description: self-aminoacylation, catalytic enhancement (BFO) (fold over background); higher = more active; k-Seq, kA / k0A0; sequences stand for … in GGGAAUGGAUCCACAUCUACGAAUUC…UUCACUGCAGACUUGACGAAGCUG
An outline of the steps: as §1

“AUUACCCUGGUCAUCGAUUGG [Fam2.1 aminoacylation ribozyme variant]”: the self-aminoacylation in the data set with biotinyl-Trp-oxazolone worked out at 1.3; with biotinyl-Val-oxazolone, 0.856; with biotinyl-Ile-oxazolone, 0.665; in the data set with biotinyl-Leu-oxazolone, 0.713; in the data set on biotinyl-Met-oxazolone, 0.715; in the data set with biotinyl-Phe-oxazolone, 0.798.
“AUUACCCUGGUCAUCGCGUAA [Fam2.1 aminoacylation ribozyme variant]”: the self-aminoacylation stood at 5.11 in the data set with biotinyl-Trp-oxazolone; 3.48 in the data set with biotinyl-Val-oxazolone; 2.73 in the data set with biotinyl-Ile-oxazolone; 2.97 in the data set on biotinyl-Leu-oxazolone; 4.04 with biotinyl-Met-oxazolone; 28.4 in the data set on biotinyl-Phe-oxazolone.
With “AUUACCCUGGUCAUCGGAUGA [Fam2.1 aminoacylation ribozyme variant]”, the self-aminoacylation with biotinyl-Trp-oxazolone was 1.62; in the data set with biotinyl-Val-oxazolone, 1.36; with biotinyl-Ile-oxazolone, 1.4; in the data set on biotinyl-Leu-oxazolone, 1.65; in the data set with biotinyl-Met-oxazolone, 1.16; with biotinyl-Phe-oxazolone, 0.931.
Turning to “AUUACCCUGGUCAUCGGGCGA [Fam2.1 aminoacylation ribozyme variant]”, the self-aminoacylation in the data set with biotinyl-Trp-oxazolone stood at 8.14; with biotinyl-Val-oxazolone it was 4.62; in the data set on biotinyl-Ile-oxazolone it was 4.15; with biotinyl-Leu-oxazolone it was 10; with biotinyl-Met-oxazolone, 8.99; in the data set with biotinyl-Phe-oxazolone, 20.1.
With “AUUACCCUGGUCAUCGGGGGA [Fam2.1 aminoacylation ribozyme variant]”, the self-aminoacylation was found to be 10.7 in the data set with biotinyl-Trp-oxazolone; 5.36 with biotinyl-Val-oxazolone; 4.75 in the data set on biotinyl-Ile-oxazolone; 9.21 in the data set with biotinyl-Leu-oxazolone; 7.12 in the data set on biotinyl-Met-oxazolone; 44.2 with biotinyl-Phe-oxazolone.
Take “AUUACCCUGGUCAUCGUGUAA [Fam2.1 aminoacylation ribozyme variant]”: the self-aminoacylation in the data set on biotinyl-Trp-oxazolone was 0.503; in the data set on biotinyl-Val-oxazolone, 1.18; with biotinyl-Ile-oxazolone, 1.13; in the data set on biotinyl-Leu-oxazolone it was 1.26; with biotinyl-Met-oxazolone it was 1.07; in the data set on biotinyl-Phe-oxazolone it was 0.847.
On to “AUUACCCUGGUCAUCGUGUGC [Fam2.1 aminoacylation ribozyme variant]”, for which the self-aminoacylation is 0.349 in the data set on biotinyl-Trp-oxazolone; 0.881 in the data set on biotinyl-Val-oxazolone; 0.992 in the data set with biotinyl-Ile-oxazolone; 1.12 in the data set with biotinyl-Leu-oxazolone; 0.938 in the data set on biotinyl-Met-oxazolone; 1.25 with biotinyl-Phe-oxazolone.
Consider “AUUACCCUGGUCAUCGUUUGA [Fam2.1 aminoacylation ribozyme variant]”, for which the self-aminoacylation with biotinyl-Trp-oxazolone is 0.734; with biotinyl-Val-oxazolone, 0.821; in the data set with biotinyl-Ile-oxazolone it was 0.923; in the data set with biotinyl-Leu-oxazolone, 0.963; in the data set on biotinyl-Met-oxazolone, 0.71; in the data set on biotinyl-Phe-oxazolone it was 0.693.
As to “AUUACCCUGGUCAUCUACUGA [Fam2.1 aminoacylation ribozyme variant]”, the self-aminoacylation was determined as 0.358 in the data set on biotinyl-Trp-oxazolone; 0.856 in the data set with biotinyl-Val-oxazolone; 0.925 in the data set on biotinyl-Ile-oxazolone; 0.676 with biotinyl-Leu-oxazolone; 0.663 in the data set on biotinyl-Met-oxazolone; 0.799 in the data set on biotinyl-Phe-oxazolone.
As to “AUUACCCUGGUCAUCUAGGGA [Fam2.1 aminoacylation ribozyme variant]”, the self-aminoacylation turned out to be 0.956 in the data set with biotinyl-Trp-oxazolone; 1.32 with biotinyl-Val-oxazolone; 1.36 in the data set with biotinyl-Ile-oxazolone; 1.47 in the data set with biotinyl-Leu-oxazolone; 1.17 in the data set with biotinyl-Met-oxazolone; 1.72 in the data set with biotinyl-Phe-oxazolone.
For the sequence “AUUACCCUGGUCAUCUAGUGG [Fam2.1 aminoacylation ribozyme variant]”, the self-aminoacylation in the data set with biotinyl-Trp-oxazolone came out at 2.08; in the data set on biotinyl-Val-oxazolone, 1.48; in the data set on biotinyl-Ile-oxazolone, 1.3; in the data set with biotinyl-Leu-oxazolone, 2.32; with biotinyl-Met-oxazolone, 2.14; in the data set with biotinyl-Phe-oxazolone it was 2.7.
Take “AUUACCCUGGUCAUCUAUUGA [Fam2.1 aminoacylation ribozyme variant]”: the self-aminoacylation in the data set with biotinyl-Trp-oxazolone is 0.789; in the data set with biotinyl-Val-oxazolone, 1.11; in the data set with biotinyl-Ile-oxazolone, 1.08; with biotinyl-Leu-oxazolone, 0.839; with biotinyl-Met-oxazolone it was 0.879; with biotinyl-Phe-oxazolone it was 0.868.
Turning to “AUUACCCUGGUCAUGGAGCGA [Fam2.1 aminoacylation ribozyme variant]”, the self-aminoacylation amounted to 1.32 with biotinyl-Trp-oxazolone; 1.29 in the data set with biotinyl-Val-oxazolone; 1.27 with biotinyl-Ile-oxazolone; 1.72 in the data set with biotinyl-Leu-oxazolone; 1.59 in the data set with biotinyl-Met-oxazolone; 3.2 with biotinyl-Phe-oxazolone.
On to “AUUACCCUGGUCAUGGCGUGA [Fam2.1 aminoacylation ribozyme variant]”, for which the self-aminoacylation with biotinyl-Trp-oxazolone stood at 19.4; with biotinyl-Val-oxazolone, 10.3; with biotinyl-Ile-oxazolone it was 7; in the data set with biotinyl-Leu-oxazolone, 17.4; with biotinyl-Met-oxazolone it was 16.2; with biotinyl-Phe-oxazolone it was 125.
For “AUUACCCUGGUCAUUGUGUGA [Fam2.1 aminoacylation ribozyme variant]”, the self-aminoacylation was 3.23 in the data set on biotinyl-Trp-oxazolone; 1.49 in the data set with biotinyl-Val-oxazolone; 1.46 with biotinyl-Ile-oxazolone; 2.23 in the data set on biotinyl-Leu-oxazolone; 2.59 in the data set on biotinyl-Met-oxazolone; 8.81 in the data set on biotinyl-Phe-oxazolone.
With “AUUACCCUGGUCCUCCAGUGA [Fam2.1 aminoacylation ribozyme variant]”, the self-aminoacylation in the data set on biotinyl-Trp-oxazolone is 9.12; with biotinyl-Val-oxazolone it was 3.79; with biotinyl-Ile-oxazolone it was 4.44; in the data set with biotinyl-Leu-oxazolone, 8.6; in the data set with biotinyl-Met-oxazolone, 7.44; with biotinyl-Phe-oxazolone it was 49.6.
As to “AUUACCCUGGUCCUUGAGUGA [Fam2.1 aminoacylation ribozyme variant]”, the self-aminoacylation in the data set on biotinyl-Trp-oxazolone turned out to be 9.98; in the data set with biotinyl-Val-oxazolone it was 3.86; in the data set with biotinyl-Ile-oxazolone, 3.86; in the data set with biotinyl-Leu-oxazolone, 8.35; in the data set on biotinyl-Met-oxazolone, 8.05; in the data set with biotinyl-Phe-oxazolone, 56.2.
With “AUUACCCUGGUCGUCGAGUGU [Fam2.1 aminoacylation ribozyme variant]”, the self-aminoacylation with biotinyl-Trp-oxazolone is 1.15; in the data set with biotinyl-Val-oxazolone, 1.2; in the data set on biotinyl-Ile-oxazolone, 1.07; with biotinyl-Leu-oxazolone, 1.08; in the data set on biotinyl-Met-oxazolone it was 1.39; with biotinyl-Phe-oxazolone it was 2.78.
Consider “AUUACCCUGGUCUUCGAGCGA [Fam2.1 aminoacylation ribozyme variant]”, for which the self-aminoacylation in the data set on biotinyl-Trp-oxazolone worked out at 1.16; with biotinyl-Val-oxazolone it was 1.23; in the data set on biotinyl-Ile-oxazolone, 0.901; with biotinyl-Leu-oxazolone, 1.11; with biotinyl-Met-oxazolone, 1.09; in the data set with biotinyl-Phe-oxazolone, 0.753.
As for “AUUACCCUGGUCUUCGAGGGA [Fam2.1 aminoacylation ribozyme variant]”, the self-aminoacylation came to 1.31 with biotinyl-Trp-oxazolone; 1.35 with biotinyl-Val-oxazolone; 1.5 with biotinyl-Ile-oxazolone; 1.54 in the data set on biotinyl-Leu-oxazolone; 1.15 in the data set on biotinyl-Met-oxazolone; 0.74 with biotinyl-Phe-oxazolone.
With “AUUACCCUGGUCUUCGAGUGU [Fam2.1 aminoacylation ribozyme variant]”, the self-aminoacylation with biotinyl-Trp-oxazolone was found to be 2.23; in the data set with biotinyl-Val-oxazolone, 1.57; in the data set with biotinyl-Ile-oxazolone, 1.52; with biotinyl-Leu-oxazolone, 2.03; with biotinyl-Met-oxazolone, 1.96; in the data set on biotinyl-Phe-oxazolone it was 1.76.

The values above are taken from the supplement of paper PMC9233669.
